In US20170130210:

Assays:
[1] = biological target: Pfk-I (LAA), N-terminal 6x-His-tagged Pfk-I with the native ssrA tag (LAA) appended to the C terminus (UniProt P0A796)
[2] = biological target: Pfk-I (untagged), N-terminal 6x-His-tagged phosphofructokinase-I without C-terminal degradation tag (UniProt P0A796)
[3] = biological target: Pfk-I (DAS+4), N-terminal 6x-His-tagged Pfk-I with the modified DAS+4 tag at the C terminus (UniProt P0A796)
Pfk-I (DAS+4), N-terminal 6x-His-tagged Pfk-I with the modified DAS+4 tag at the C terminus, sequence (P0A796 other isoform, or with tags, fused parts or gaps): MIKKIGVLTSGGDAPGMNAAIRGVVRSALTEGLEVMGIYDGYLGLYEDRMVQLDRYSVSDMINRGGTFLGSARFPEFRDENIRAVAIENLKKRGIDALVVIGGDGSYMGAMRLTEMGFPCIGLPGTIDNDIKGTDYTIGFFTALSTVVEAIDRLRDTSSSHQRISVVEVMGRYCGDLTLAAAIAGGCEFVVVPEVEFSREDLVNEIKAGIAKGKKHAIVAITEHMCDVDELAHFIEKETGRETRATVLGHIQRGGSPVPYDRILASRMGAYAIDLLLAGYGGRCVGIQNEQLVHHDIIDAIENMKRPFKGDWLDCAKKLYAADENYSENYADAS

Pfk-I (LAA), N-terminal 6x-His-tagged Pfk-I with the native ssrA tag (LAA) appended to the C terminus, sequence (P0A796 other isoform, or with tags, fused parts or gaps): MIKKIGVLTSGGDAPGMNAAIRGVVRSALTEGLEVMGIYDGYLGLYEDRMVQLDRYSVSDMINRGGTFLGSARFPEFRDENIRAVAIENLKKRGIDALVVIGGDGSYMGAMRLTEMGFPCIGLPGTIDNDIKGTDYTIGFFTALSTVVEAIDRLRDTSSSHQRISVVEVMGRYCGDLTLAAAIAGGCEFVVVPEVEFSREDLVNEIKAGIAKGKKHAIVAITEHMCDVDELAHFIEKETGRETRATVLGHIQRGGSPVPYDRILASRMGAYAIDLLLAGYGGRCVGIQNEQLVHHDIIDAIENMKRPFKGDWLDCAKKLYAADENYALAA
Pfk-I (untagged), N-terminal 6x-His-tagged phosphofructokinase-I without C-terminal degradation tag, sequence (P0A796 whole entry): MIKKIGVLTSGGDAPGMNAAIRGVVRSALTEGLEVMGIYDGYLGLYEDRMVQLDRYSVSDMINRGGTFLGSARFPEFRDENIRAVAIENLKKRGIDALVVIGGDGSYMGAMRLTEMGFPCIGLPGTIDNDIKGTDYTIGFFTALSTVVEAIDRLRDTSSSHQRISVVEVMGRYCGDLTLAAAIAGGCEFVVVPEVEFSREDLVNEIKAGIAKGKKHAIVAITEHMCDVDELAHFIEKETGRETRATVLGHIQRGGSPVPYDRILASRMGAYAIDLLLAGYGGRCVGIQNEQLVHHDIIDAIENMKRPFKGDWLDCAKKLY

ClpXP protease (0.3 µM ClpX6 and 0.9 µM ClpP14)
in vitro degradation by ClpXP with ATP, SDS-PAGE time course [1]: shows almost complete disappearance by 20 minutes | in vitro degradation by ClpXP with ATP, SDS-PAGE time course [2]: does not show significant degradation during the 60 minute incubation with ClpXP | in vitro degradation by ClpXP with ATP, SDS-PAGE time course, no SspB [3]: no significant degradation was observed over the 60 minute period
